Primed or numbered codes have the meaning given here. Where no end group is shown, it is not given here. [ ]: non-standard residue; d: D form. Dhb′ = not defined here; Dha = C=C(N)C(=O)O
Legend:
Format in all cases: cell-based, Lactobacillus sakei
[1] = test system: L. sakei; test: Oxidation stability test, antimicrobial activity after hydrogen peroxide treatment, spot-on-lawn (Experiment 8); design: key to Antimicrobial activity, Before oxidation treatment / Antimicrobial activity, After oxidation treatment: -: Without antimicrobial activity; +: With antimicrobial activity; ++: With strong antimicrobial activity; +++: With very strong antimicrobial activity; settings: for Antimicrobial activity, After oxidation treatment: 1-mM solution treated with 10 mM hydrogen peroxide at 40°C for 6 hours
Protocol: (§1) Like in Experiment 1A, antimicrobial activity of the antimicrobial peptide was evaluated by a spot-on-lawn method. As the test bacteria, Lactobacillus sakei (NBRC15893) was used. After overnight culturing, the test bacteria were mixed and diluted with Lactobacilli AOAC agar so as to achieve a density of 4×10^7 CFU/mL, and the resultant was spread over an MRS plate containing 2% agar. The test liquid was spotted on the test bacteria, and incubated overnight at 30°C. The size of the growth inhibition circle of L. sakei was evaluated as the antimicrobial activity.
(§2) Nisin A used in Examples was Nisin from Lactococcus lactis 2.5% (manufactured by Sigma-Aldrich corporation) that was used after concentration and purification. The details of nisin A are as described by J. C. Slootweg et al., J. Pept. Sci., 19, 692-699(2013). To 1 g of commercially available 2.5% nisin A (containing about 25 mg of nisin A), 25 mL of water was added, and the resultant was stirred for 15 minutes at room temperature. Centrifugation (15 minutes, 2500 rpm) was carried out to separate off the precipitate, and only the supernatant was transferred to another tube. To the resulting solution, 20 mL of dichloromethane was added. To collect the white precipitate that was present between the aqueous layer and the organic layer, the upper layer and the lower layer were removed. Another round of centrifugation (15 minutes, 2500 rpm) was carried out to remove, again, the upper layer and the lower layer. The intermediate layer that was sought after was dried in a reduced-pressure centrifuge and re-dissolved in 7.45 mL of water, and thereby a 1-mM purified Nisin product was obtained. The resulting purified product was used as nisin A in each stability test.
The method of oxidation treatment is as described by Toshihiro T. et al., J. Proteome Res., 12, 753-762(2013). To a 1-mM solution of lactobacin A or nisin A, hydrogen peroxide was added to achieve a final concentration of 10 mM, followed by reaction at 40°C for 6 hours. After the completion of reaction, the reaction liquid was diluted with water to achieve a polypeptide concentration of 10 µM or 1 µM. By the same spot-on-lawn method as adopted in the above-mentioned antimicrobial activity test, the polypeptide was added in drops to form a growth inhibition circle of L. sakei, and thereby the antimicrobial activity of the polypeptide after oxidation treatment was evaluated. Development of the oxidation reaction was calculated as a relative value of the peak area obtained by LC/MS measurement of the oxidation-treated test solution relative to the non- oxidation-treated test solution. As a positive control (PC), culture supernatant of a nisin A-producing lactic acid bacterium (Lactococcus lactis ATCC-11454 strain) was used.

[2] = test system: L. sakei; test: Thermal stability test, antimicrobial activity after heat treatment, spot-on-lawn (Experiment 7); design: key to Antimicrobial activity after heat treatment / Antimicrobial activity, Untreated: -: Without antimicrobial activity; +: With antimicrobial activity; ++: With strong antimicrobial activity; +++: With very strong antimicrobial activity; settings: for thermal stability of antimicrobial activity: result in words
Protocol: as §1, §2
The test solution was subjected to heat treatment at 80°C for 10 minutes, or at 80°C for 30 minutes, or at 100°C for 10 minutes, or at 100°C for 30 minutes, or at 121°C for 15 minutes. By the same spot-on-lawn method as adopted in the above-mentioned antimicrobial activity test, the polypeptide was added in drops to form a growth inhibition circle of L. sakei, and thereby the antimicrobial activity of the polypeptide after heat treatment was evaluated. As a positive control (PC), culture supernatant of a nisin A-producing lactic acid bacterium (Lactococcus lactis ATCC-1 1454 strain) was used. A sample without the heat process was used as an untreated control.

[3] = test system: L. sakei; test: Wide pH-range stability test, antimicrobial activity after pH treatment, spot-on-lawn (Experiment 6); design: key to Antimicrobial activity after pH treatment / Antimicrobial activity, Untreated: -: Without antimicrobial activity; +: With antimicrobial activity; ++: With strong antimicrobial activity; +++: With very strong antimicrobial activity; settings: for Antimicrobial activity after pH treatment: 30°C
Protocol: as §1
Each peptide was redissolved and prepared in the following buffer; Sodium acetate-acetic acid (50 mM, pH4.0), Sodium phosphate (50 mM, pH7.4), glycine-NaOH (50 mM, pH10.0). The test solution thus prepared at the above-specified pH was incubated at 30°C. The duration of the incubation was 0 hours, 0.5 hours, 2 hours, 4 hours, 6 hours, and 24 hours, and at the completion of the incubation, TFA was added in a final concentration of 0.2%. […] By the same spot-on-lawn method as adopted in the above-mentioned antimicrobial activity test, the polypeptide was added in drops to form a growth inhibition circle of L. sakei, and thereby the antimicrobial activity of the polypeptide after pH treatment was evaluated. As a positive control (PC), culture supernatant of a nisin A-producing lactic acid bacterium (Lactococcus lactis ATCC-11454 strain) was used. A sample that was prepared solely with a 0.2% TFA aqueous solution was used as an untreated control.
as §2

nisin A (I[Dhb′]SI[Dha]LCTPGCKTGALMGCNMKTATCHCSIHV[Dha]K; thioether (positions not given here); not fully specified (some residues, bridges); also: lanthionine thioether crosslinks and dehydro residues, not placed; UniProt P13068 24-57, looked up) [Nisin from Lactococcus lactis 2.5% (Sigma-Aldrich) used after concentration and purification; known antimicrobial peptide]
-: Antimicrobial activity, After oxidation treatment ([1]; diluted to 1 µM) | Antimicrobial activity, After oxidation treatment ([1]; diluted to 10 µM) | Antimicrobial activity after heat treatment ([2]; 10 µM, 80°C 30 min) | Antimicrobial activity after heat treatment ([2]; 10 µM, 100°C 10 min) | Antimicrobial activity after heat treatment ([2]; 10 µM, 100°C 30 min) | Antimicrobial activity after heat treatment ([2]; 10 µM, 121°C 15 min) | Antimicrobial activity after pH treatment ([3]; 10 µM, pH 7.4, 0 hr) | Antimicrobial activity after pH treatment ([3]; 10 µM, pH 7.4, 0.5 hr) | Antimicrobial activity after pH treatment ([3]; 10 µM, pH 7.4, 2 hr) | Antimicrobial activity after pH treatment ([3]; 10 µM, pH 7.4, 4 hr) | Antimicrobial activity after pH treatment ([3]; 10 µM, pH 7.4, 6 hr) | Antimicrobial activity after pH treatment ([3]; 10 µM, pH 7.4, 24 hr) | Antimicrobial activity after pH treatment ([3]; 10 µM, pH 10.0, 0 hr) | Antimicrobial activity after pH treatment ([3]; 10 µM, pH 10.0, 2 hr) | Antimicrobial activity after pH treatment ([3]; 10 µM, pH 10.0, 4 hr) | Antimicrobial activity after pH treatment ([3]; 10 µM, pH 10.0, 6 hr) | Antimicrobial activity after pH treatment ([3]; 10 µM, pH 10.0, 24 hr)
++: Antimicrobial activity, Before oxidation treatment ([1]; 10 µM) | Antimicrobial activity, Untreated ([2]; 10 µM, sample without the heat process) | Antimicrobial activity after pH treatment ([3]; 10 µM, pH 4.0, 0 hr) | Antimicrobial activity after pH treatment ([3]; 10 µM, pH 4.0, 0.5 hr) | Antimicrobial activity after pH treatment ([3]; 10 µM, pH 4.0, 2 hr) | Antimicrobial activity, Untreated ([3]; 10 µM, untreated control prepared solely with 0.2% TFA aqueous solution)
+: Antimicrobial activity, Before oxidation treatment ([1]; 1 µM) | Antimicrobial activity after heat treatment ([2]; 10 µM, 80°C 10 mm) | Antimicrobial activity after pH treatment ([3]; 10 µM, pH 4.0, 4 hr) | Antimicrobial activity after pH treatment ([3]; 10 µM, pH 4.0, 6 hr) | Antimicrobial activity after pH treatment ([3]; 10 µM, pH 4.0, 24 hr) | Antimicrobial activity after pH treatment ([3]; 10 µM, pH 10.0, 0.5 hr)
lost its antimicrobial activity: oxidation stability of antimicrobial activity ([1]; result in words, after oxidation treatment with 10-mM hydrogen peroxide) | thermal stability of antimicrobial activity ([2]; any heat treatment beyond 80°C for 10 minutes) | pH stability of antimicrobial activity ([3]; result in words, neutral range and alkaline range)
retained its activity: thermal stability of antimicrobial activity ([2]; heat treatment at 80°C for 10 minutes)
